Source: patent US20240024426A1, “HYPOTENSIVE PHARMACEUTICAL COMPOSITION COMPRISING TRIPLE ACTIVATOR HAVING ACTIVITY FOR ALL OF GLUCAGON, GLP-1, AND GIP RECEPTORS” (HANMI PHARM. CO., LTD., priority 2020, published 2024)
Bridges are numbered along the chain shown (N, C = ends). Where no end group is shown, it is not given here. [ ]: non-standard residue; d: D form. The star is where a group is joined. Acetyl(2-(4-imidazolyl)) = O=C(Cc1c[nH]cn1)*; Aib = CC(C)(N)C(=O)O

What was measured:
Assay in all cases: cell-based or functional assay
human GLP-1 receptor = human GLP-1 receptor (human, UniProt P43220 24-463)
human GIP receptor = target: T1, human GIP receptor (human, UniProt P48546 22-466)
T1 sequence (looked up): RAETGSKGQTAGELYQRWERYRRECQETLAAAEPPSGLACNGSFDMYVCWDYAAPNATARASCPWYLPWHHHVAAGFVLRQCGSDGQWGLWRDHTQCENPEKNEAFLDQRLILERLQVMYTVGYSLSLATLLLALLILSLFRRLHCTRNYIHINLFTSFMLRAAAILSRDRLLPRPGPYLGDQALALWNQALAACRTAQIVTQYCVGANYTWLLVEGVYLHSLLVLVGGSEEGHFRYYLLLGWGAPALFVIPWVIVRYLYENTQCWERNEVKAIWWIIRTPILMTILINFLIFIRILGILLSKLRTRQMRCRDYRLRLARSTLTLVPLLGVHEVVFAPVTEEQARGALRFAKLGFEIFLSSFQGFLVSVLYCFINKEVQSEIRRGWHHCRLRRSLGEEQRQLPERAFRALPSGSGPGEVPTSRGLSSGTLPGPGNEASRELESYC

human GCG receptor = human GCG receptor (human, UniProt P47871 26-477)
Sequence of human GCG receptor (P47871 26-477): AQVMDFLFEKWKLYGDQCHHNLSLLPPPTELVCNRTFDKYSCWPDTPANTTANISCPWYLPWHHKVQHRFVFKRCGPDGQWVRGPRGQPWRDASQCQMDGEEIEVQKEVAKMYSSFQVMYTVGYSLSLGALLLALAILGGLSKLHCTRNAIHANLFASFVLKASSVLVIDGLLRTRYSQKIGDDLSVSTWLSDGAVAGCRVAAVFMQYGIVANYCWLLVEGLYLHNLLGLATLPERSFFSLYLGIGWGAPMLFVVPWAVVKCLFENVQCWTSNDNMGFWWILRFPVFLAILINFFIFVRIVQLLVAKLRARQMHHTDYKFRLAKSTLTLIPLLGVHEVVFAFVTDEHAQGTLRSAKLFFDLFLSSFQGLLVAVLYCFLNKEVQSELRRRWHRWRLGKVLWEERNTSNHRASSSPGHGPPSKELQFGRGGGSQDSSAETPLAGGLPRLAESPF

| Binder | In vitro activity compared with native peptide (%) vs. GLP-1 (human GLP-1 receptor) [%] | In vitro activity compared with native peptide (%) vs. GIP (human GIP receptor) [%] | In vitro activity compared with native peptide (%) vs. Glucagon (human GCG receptor) [%] |
| --- | --- | --- | --- |
| {Acetyl(2-(4-imidazolyl))}-[Aib]EGTFTSDYSIAMDEIHQKDFVDWLLAEKC (bridge 15-19) [Triple agonist of SEQ ID NO: 91] | 31.9 | 0.3 | 16.8 |
| H[Aib]QGTFTSDVSSYLDGQAQKEFIAWLVKGC [Triple agonist of SEQ ID NO: 2] | 5.9 | < 0.1 | < 0.1 |
| {Acetyl(2-(4-imidazolyl))}-[Aib]QGTFTSDYSKYLDEKRQKEFVQWLLDTKC (bridge 15-19) [Triple agonist of SEQ ID NO: 89] | 7.1 | < 0.1 | 0.7 |
| Y[Aib]QGTFTSDYSKALDEKAAKDFVNWLLDQHPSSGQPPPSC (bridge 16-20) [Triple agonist of SEQ ID NO: 102] | 23.3 | 58 | 29.5 |
| Y[Aib]QGTFTSDYSKALDEKAAKEFVNWLLDHHPSSGQPPPSC (bridge 16-20) [Triple agonist of SEQ ID NO: 98] | 28.1 | 47.1 | 8.2 |
| {Acetyl(2-(4-imidazolyl))}-[Aib]QGTFTSDYSKYLDEKRQKEFVNWLLAQKC (bridge 15-19) [Triple agonist of SEQ ID NO: 93] | 5.7 | 0.7 | 0.3 |
| {Acetyl(2-(4-imidazolyl))}-[Aib]EGTFTSDYSIAMDEIHQKDFVDWLLAEC (bridge 15-19) [Triple agonist of SEQ ID NO: 84] | 4.2 | < 0.1 | < 0.1 |
| Y[Aib]QGTFTSDYSKALDEKAAKEFVNWLLDQHPSSGQPPPSC (bridge 16-20) [Triple agonist of SEQ ID NO: 101] | 23.2 | 40.1 | 13.9 |
| Y[Aib]QGTFTSDYSKYLDEKRAKEFVQWLLCHHPSSGQPPPS (bridge 16-20) [Triple agonist of SEQ ID NO: 95] | 2.1 | < 0.1 | 0.4 |
| Y[Aib]QGTFTSDYSKALDEKAAKEFVQWLLDQHPSSGQPPPSC (bridge 16-20) [Triple agonist of SEQ ID NO: 100] | 42.2 | 118 | 12.7 |
| {Acetyl(2-(4-imidazolyl))}-[Aib]QGTFTSDYSIAMDEIHQKDFVNWLLNTC (bridge 15-19) [Triple agonist of SEQ ID NO: 87] | 0.9 | < 0.1 | < 0.1 |
| Y[Aib]QGTFTSDYSKALDEKAAKDFVNWLLDHHPSSGQPPPSC (bridge 16-20) [Triple agonist of SEQ ID NO: 99] | 20.9 | 57.7 | 14.9 |
| H[Aib]QGTFTSDVSKYLDGQAAQEFVAWLLAGGGPSSGAPPPSC [Triple agonist of SEQ ID NO: 10] | 46 | < 0.1 | < 0.1 |
| {Acetyl(2-(4-imidazolyl))}-[Aib]QGTFTSDYSKYLDEKRQKEFVQWLLNTKC (bridge 15-19) [Triple agonist of SEQ ID NO: 88] | 9.6 | < 0.1 | 0.3 |
| Y[Aib]QGTFTSDYSKYLDEKRAKEFVQWLLDCHPSSGQPPPS (bridge 16-20) [Triple agonist of SEQ ID NO: 97] | 10.5 | 2.6 | 62.8 |
| {Acetyl(2-(4-imidazolyl))}-GEGTFISDYSIQLDEIAVQDFVEWLLAQKPSSGAPPPSHG [Triple agonist of SEQ ID NO: 13] | < 0.1 | < 0.1 | < 0.1 |
| {Acetyl(2-(4-imidazolyl))}-GEGTFTSDLSKYLDSRRQQLFVQWLKAGGPSSGAPPPSHG [Triple agonist of SEQ ID NO: 11] | 1.4 | < 0.1 | < 0.1 |
| {Acetyl(2-(4-imidazolyl))}-[Aib]QGTFTSDYSIAMDEIHQKDFVNWLLNTKC (bridge 15-19) [Triple agonist of SEQ ID NO: 94] | 0.5 | < 0.1 | < 0.1 |
| [Acetyl(2-(4-imidazolyl))][Aib]QGTFTSDYSIAMDEIHQKDFVNWLLAQKC (bridge 16-20) [Triple agonist of SEQ ID NO: 92] | 0.8 | 0.4 | < 0.1 |
| {Acetyl(2-(4-imidazolyl))}-GQGTFTSDYSIQLDEIAVRDFVEWLKNGGPSSGAPPPSHG [Triple agonist of SEQ ID NO: 14] | 28 | < 0.1 | < 0.1 |
| {Acetyl(2-(4-imidazolyl))}-[Aib]QGTFTSDYSIAMDEIHQKDFVNWLLAQC (bridge 15-19) [Triple agonist of SEQ ID NO: 85] | 4.3 | 0.3 | < 0.1 |
| Y[Aib]QGTFTSDYSKYLDEKRAKEFVQWLLDHCPSSGQPPPS (bridge 16-20) [Triple agonist of SEQ ID NO: 96] | 34.4 | 5.2 | 195 |
| {Acetyl(2-(4-imidazolyl))}-GEGTFISDLSKYMDEQAVQLFVEWLMAGGPSSGAPPPSHG [Triple agonist of SEQ ID NO: 12] | 0.4 | < 0.1 | < 0.1 |
| {Acetyl(2-(4-imidazolyl))}-GQGTFTSDLSKQMDSEAQQLFIEWLKNGGPSSGAPPPSHG [Triple agonist of SEQ ID NO: 16] | 2.1 | < 0.1 | < 0.1 |
| {Acetyl(2-(4-imidazolyl))}-[Aib]EGTFTSDYSIAMDEIHQKDFVNWLLAQC (bridge 15-19) [Triple agonist of SEQ ID NO: 83] | 47.3 | 0.4 | 1.3 |
| H[Aib]QGTFTSDVSKYLDGQAAQEFVAWLLAGC [Triple agonist of SEQ ID NO: 9] | 32.1 | < 0.1 | 0.13 |
| {Acetyl(2-(4-imidazolyl))}-[Aib]QGTFTSDYSKYLDEKRQKEFVNWLLAQC (bridge 15-19) [Triple agonist of SEQ ID NO: 86] | 28.4 | 0.2 | 0.4 |
| {Acetyl(2-(4-imidazolyl))}-[Aib]EGTFTSDYSIAMDEIHQKDFVNWLLAQKC (bridge 15-19) [Triple agonist of SEQ ID NO: 90] | 7.4 | < 0.1 | < 0.1 |
